Here are results for 40 sequences from the nanobody polyreactivity screen of Harvey et al. (2022).

The nature of this data set: yeast display, Sf9 membrane polyspecificity reagent, FACS + sequencing; frameworks hold sequencing errors. Summed up: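 Galactose induction of a Saccharomyces cerevisiae BJ5465 synthetic nanobody display library ran 36–48 hours. The cells were then stained for 1 hour at 4 °C with 10% biotinylated, detergent-solubilized Sf9 membrane reagent, pulled down on streptavidin microbeads and FACS-sorted into low and high (top ~1%) gates on expression and reagent-binding fluorescence. Labels for polyreactivity follow the gate of origin.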
Turning to “QVQLVESGGGLVQAGGSLRLSCAASGRTFNSYPMGWYRQAPGTERELVAAINYRGTSTYYSDSVKGRFTISRDNAMNTVYLQMNSLKPEDTAVYYCNARQTRSSRINYPEGIYNYWGQGTQVNVSS”, the “polyreactivity (PSR sort gate)” value is reported as “high polyreactivity”.

As for “QVQLVESGGGLVQAGGSLRLSCAASGRTFNTYAMGWYRQAPGKERELVAAISSGGRTYYADSVKGRFTISRDNAKNTVYLQMNSLKPEDTAVYYCAAKPFQYRTVYEYWGQGTQVTVSS”, the “polyreactivity (PSR sort gate)” value is “high polyreactivity”.

In the case of “QVQLVESGGGLVQAGGSLRLSCAASGRTFNVNAMGWYRQAPGKERELVAAISSSGTTNYADSVKGRFTISRDNAKNTVYLQMNSLKPEDTAVYYCNKRWRDKYPQYDYWGQGTQVTVSS”, the “polyreactivity (PSR sort gate)” value is given as “low polyreactivity”.

As for “QVQLVESGGGLVQAGGSLRLSCAASGRTFNWYAMGWYRQAPGKERELVAAISYSGGGTYYADSVKGRFTISRDNAKNTVYLQMNSLKPEDTAVYYCAAETYYAPYVYWGQGTQVTVSS”, the “polyreactivity (PSR sort gate)” value is given as “high polyreactivity”. In the case of “QVQLVESGGGLVQAGGSLRLSCAASGRTFNWYAMGWYRQAPGKERELVAAISYSGGGTYYADSVKGRFTISRDTAKNTVYLQMNSLKPEDTAVYYCAAETYYAPYDYWGQGTQVTVSS”, the “polyreactivity (PSR sort gate)” value is on record as “high polyreactivity”. “QVQLVESGGGLVQAGGSLRLSCAASGRTFNWYAMGWYRQAPGKESELVAAISSRGGSTYADSVKGRFTISRDNAKNTVYLQMNSLTPEDTAVYYCNADLLPADAPLWVTGGDYWGQGTQVTVSW”: the “polyreactivity (PSR sort gate)” value is reported as “low polyreactivity”. Consider “QVQLVESGGGLVQAGGSLRLSCAASGRTFNYYAMGWYRQAPGKEREFVAANSWSVGSTYYADSVKGRFTISRDNAKNTVYLQMNSLKPEDTAVYYCATEVPVGVQRHIFNYYYWGQGTPVTVSS”, for which the “polyreactivity (PSR sort gate)” value was “low polyreactivity”. For the sequence “QVQLVESGGGLVQAGGSLRLSCAASGRTFNYYAMGWYRQAPGKERELVAAISSSGGRTYYADSVKGRFTISRDNAKNTVYLQMNSLKPEDTAVYYCAADSFYYRPEYDYWGQGTQVTVSS”, the “polyreactivity (PSR sort gate)” value is “low polyreactivity”.

For “QVQLVESGGGLVQAGGSLRLSCAASGRTFNYYAMGWYRQAPGKERELVATITFSGDGSTYYAHSVKGRFTISRDNAKNTVYLHMNSLKPEDTAVYYCTADIEKSYNYWGQGTQVTVSS”, the “polyreactivity (PSR sort gate)” value is on record as “low polyreactivity”. As for “QVQLVESGGGLVQAGGSLRLSCAASGRTFPAYTMGWYRQAPGKERELVAAINWSGGSTYYADSVKGRFTISRDNAKNTVYLQMNSLKPEDTAVYYCARTSHYYGFRSYGTLDYWGQGTQVTVSS”, the “polyreactivity (PSR sort gate)” value is given as “high polyreactivity”. The value for “QVQLVESGGGLVQAGGSLRLSCAASGRTFPFYAMGWYRQAPGKERELVAAISISGGSTYYADSVKGRFTISRDNAKNTVYLLMNSLKPEDTAVYYCATDGLYLSWQYSWEELYYWGQGTQVTVSS” was “high polyreactivity”. For “QVQLVESGGGLVQAGGSLRLSCAASGRTFPFYAMGWYRQAPGKERELVADITSSGGSTYYADSVKGRFTISRDNAKNTVYLQMNSLKPEDTAVYFCNSFRGAQGSDAYDWGQGTQVTVSS” the value was “low polyreactivity”; for “QVQLVESGGGLVQAGGSLRLSCAASGRTFPGNAMGWYRQAPGKERELVAAISWSGTRTYYADSVKGRFTISRDNAKNTVYLQMNSLKPEDTAVYYCNRRYWSFFPYDYWGQGTQVTVSS”, “high polyreactivity”.

Regarding “QVQLVESGGGLVQAGGSLRLSCAASGRTFPGNDMGWYRQAPGKERELVAAISSDDSTYYADSVKGRFTISRDNAKNTVYLQMNSLKPEDTAVYYCNAEYYEGYIGVPGSYWPYEYWGQGTQVTVSS”, the “polyreactivity (PSR sort gate)” value is reported as “low polyreactivity”. The value for “QVQLVESGGGLVQAGGSLRLSCAASGRTFPGYAMGWYRQAPGKERELVAAISWSGTSTYYADSVKGRFTISRDNAKNTVYLQMNSLKPEDTAVYYCNKVYTYSAPYYYWGQGTQVTVSS” was “high polyreactivity”; that for “QVQLVESGGGLVQAGGSLRLSCAASGRTFPGYAMGWYRQAPGKERELVATITGNGGSTYYADSVKGRFTISRDNAKNTVYLQMNSLKPDDTAVYYCAAGRRRPYVRAYSGTDYWGQGTQVTVSS” was “low polyreactivity”; that for “QVQLVESGGGLVQAGGSLRLSCAASGRTFPGYAMGWYRQAPGKEREVVAGISYRGGSTYYADSVKGRFTISRDNPKNTVYLQMNSLKPVDTAVYYCARDYSRHKGDYWGQGTQVTVSS” was “low polyreactivity”.

With “QVQLVESGGGLVQAGGSLRLSCAASGRTFPLNAMGWYRQAPGKERELVARISSNGGSTYYADSMKGRFTISRDNAKNTVYLQMNSLKPEDTAVYYCAARYYSRRGLYYWGQGTQVTVSS”, the “polyreactivity (PSR sort gate)” value is listed as “high polyreactivity”. For “QVQLVESGGGLVQAGGSLRLSCAASGRTFPPYAMGWYRQGPGKERELVASIRRGGSTHYADSVKRRFTISRDNAKNTVYLQMNSLQPEDTAVYYCAAYYGGWSTYGAGYGGFYYWGQGTQVTVSS” the value was “high polyreactivity”; for “QVQLVESGGGLVQAGGSLRLSCAASGRTFPRNGMGWYRQAPGKERELVAAISWSGGRTYYADSVKGRFTISRDNAKNTVYLQMNSLKPEDTAVYYCNALYFRKGGYWGQGTQVTVSS”, “high polyreactivity”; for “QVQLVESGGGLVQAGGSLRLSCAASGRTFPSNVMGWYRQAPGKEREFVAAITTRGGNTRYADSVKGRFTISRDNAKNTVYLQMNSLKPEDTAVFYCAAKVKPGYDYWGQGTQVTVSS”, “low polyreactivity”. With “QVQLVESGGGLVQAGGSLRLSCAASGRTFPVYAMGWYRQAPGKEREFVAAISRRGGSTYYADSVKGRFTISRDNAKNTVYLQMNSLKPQDTAVYYCAKVYYLYGAQHNPGRYDYWGQGTQLTVSS”, the “polyreactivity (PSR sort gate)” value was “high polyreactivity”. Consider “QVQLVESGGGLVQAGGSLRLSCAASGRTFPVYAMGWYRQAPGKERELVAAIRFSGGSTYYADSVKGRFTISRDNAKNTVYLQMNSLKPEDTAVYYCAADDWSWSTAWVPWYNYDYWGQGTQVTVSS”, for which the “polyreactivity (PSR sort gate)” value was “low polyreactivity”. Take “QVQLVESGGGLVQAGGSLRLSCAASGRTFPYNAMGWYRQAPGKERELVAAISGRGGSTYYADSVKGRFTISRDNAKNTVYLQMNSLKPEDTAVYYCAARLPWSYYRTQGYNYWGQGTQVTVSS”: the “polyreactivity (PSR sort gate)” value was “high polyreactivity”.

Regarding “QVQLVESGGGLVQAGGSLRLSCAASGRTFPYNAMGWYRQAPGKERELVAAISSGGSTNYADSVKGRFTISRDNAKNTVYLQMNSLKPEDTAVYYCAVTGWPRYTWYSYGYWGQGTQVTVSS”, the “polyreactivity (PSR sort gate)” value is on record as “low polyreactivity”. For “QVQLVESGGGLVQAGGSLRLSCAASGRTFPYNAMGWYRTAPGKERELVAAISSGGSTNYADSVKGRFTISRDNAKNTVYLQMNSLKPEDTAVYYCAVTGWPRYTWYSYGYWGQGTQVTVSS”, the “polyreactivity (PSR sort gate)” value is on record as “low polyreactivity”. As for “QVQLVESGGGLVQAGGSLRLSCAASGRTFPYNDMGWYRQAPGKERQLVAGISLSGGSTFYADSVKGRFTISRDNAKKTVYLQRNSLKAEDTAVYYCNAPGGRYVWTDDYDYWGQGTQVTVSS”, the “polyreactivity (PSR sort gate)” value is reported as “high polyreactivity”. Regarding “QVQLVESGGGLVQAGGSLRLSCAASGRTFPYYAMGWSRQAPGKERELVAAITRGGNTNYADSVKGRFTISRDNAKNTVYLQMNSLKPEDTAVYYCAALVRAGPRRGTIYDYWGQGTQVTVSS”, the “polyreactivity (PSR sort gate)” value is “high polyreactivity”. On to “QVQLVESGGGLVQAGGSLRLSCAASGRTFPYYAMGWYRQAPGKERELVAAISSSGGSTYYADSVKARFTISGDNAKNTVYLQMNSLKPEDTAVYDCTRYSRLYLTDDDYWGQGTQVTVSS”, for which the “polyreactivity (PSR sort gate)” value is “high polyreactivity”. Regarding “QVQLVESGGGLVQAGGSLRLSCAASGRTFPYYTMGWYRQAPGKERELVAAISSSGGSTYYADSVKGRFTISRDNAKNTVYLQMNSLKPEDTAVYYCNAGYRWTHFGSWGQGTQVTVSS”, the “polyreactivity (PSR sort gate)” value was “low polyreactivity”.

As to “QVQLVESGGGLVQAGGSLRLSCAASGRTFQDNAMGWYRQAPGKEREFVAAISWSGDSTYYADSVKGRFTISRDNAKNTVYLQMNSLKPEDTAVYYCAASRVIPSYPYYKYDYWGQGTQVTVSS”, the “polyreactivity (PSR sort gate)” value is listed as “low polyreactivity”. As for “QVQLVESGGGLVQAGGSLRLSCAASGRTFQDNAMGWYRQAPGKERELVAAIRDNGGSTYYADSVKGRFTISRDNAKNTVYLQMNSLKPEDTAVYYCAADQGTGSYDYWGQGTQVTVSS”, the “polyreactivity (PSR sort gate)” value was “low polyreactivity”. As for “QVQLVESGGGLVQAGGSLRLSCAASGRTFQDNAMGWYRQAPGKERELVAAISWRGGSTNYADSVKGRFTISRDNAKNTVYLQMNSLKPEDTAVYYCAKGIRRWYGGSDYWGQGTQVTVSS”, the “polyreactivity (PSR sort gate)” value is “low polyreactivity”. Regarding “QVQLVESGGGLVQAGGSLRLSCAASGRTFQEYAMGWYRQAPGKERELVADISDGGSTNYADSVKGRFTISRDNAKNTVYLLMKSLKPEDTAGYYCAAARPGWRVGYDYWGQGTQVTVSS”, the “polyreactivity (PSR sort gate)” value is on record as “low polyreactivity”. Take “QVQLVESGGGLVQAGGSLRLSCAASGRTFQFYTMGWYRQAPGKERELVAVITVSSASTFYADSVKGRFTISRDNAKNTVYLQMNSLKPEDTAVYYCAAGLVLNVGMDSWGQGTQVTVSS”: the “polyreactivity (PSR sort gate)” value is “low polyreactivity”. For “QVQLVESGGGLVQAGGSLRLSCAASGRTFQGNVMGWYRQAPGKERELVAAISRSGSRTYYADSVKGRFTISRDNAKNTVYLQMNSLKPEDTAVYYCNALKSKRRQVIWYDYWGQGTQVTVSS” the value was “high polyreactivity”. “QVQLVESGGGLVQAGGSLRLSCAASGRTFQKNTMGWYRQARGKEMQLVAAIDFSATTTYYADSVKGRFTISRDNAKNTVYLQMNSLKPEATAVYYCAARWSYPRWELDYWGQGTQVTVSS”: the “polyreactivity (PSR sort gate)” value was “high polyreactivity”.

As to “QVQLVESGGGLVQAGGSLRLSCAASGRTFQLNAMGWYRQAPGKEREVVAAISTRGGSTYYADSVKGRFTISRDNAKNTVYLQMHRLKPEDTAVYYCAKDPSFTRGYKEGGGYDYWGQGTQVTVSS”, the “polyreactivity (PSR sort gate)” value is on record as “high polyreactivity”. As for “QVQLVESGGGLVQAGGSLRLSCAASGRTFQRYAMGWYRQAPGKERELVAAITSRGGSTYYADSVKGRFTISRDNAKNTVYLQMNSLKPEDTAVYYCNARSRRTHSEPQSEMDYWGQGTQVTVSS”, the “polyreactivity (PSR sort gate)” value was “high polyreactivity”. Take “QVQLVESGGGLVQAGGSLRLSCAASGRTFQRYTMGWYRQAPGKERELVASISRSGGSTYYADSVKGRFTISRDNAKNTVYLQMNSLKPEDTAVYYCATRSLFWNRNHYRVSSPVLFDYWGQGTQVTVSS”: the “polyreactivity (PSR sort gate)” value was “high polyreactivity”.
